Assay results from patent US20180030111A1.
Where two headings read alike, the source gives them in different places.

Tests used:
[1] = molecular target: CD32b (FcgRIIb receptor) (human) (UniProt P31994); experiment: ELISA, purified IgG on coated receptor, ratio against wild-type
[2] = molecular target: CD32aR (FcgRIIa receptor, R at position 131) (human) (UniProt P12318); experiment: as above
[3] = molecular target: CD32aH (FcgRIIa receptor, H at position 131) (human) (UniProt P12318); experiment: as above
CD64 = CD64 (UniProt P12314); experiment: as above
[4] = molecular target: C1q complement (rabbit serum as complement source) (rabbit); experiment: cell-based or functional assay
[5] = molecular target: FcgRIIIa receptor (CD16a) on human NK cells (human) (UniProt P08637); experiment: cell-based or functional assay
[6] = molecular target: C1q complement (rabbit serum as complement source) (rabbit); experiment: cell-based or functional assay; remark: listed apart in the source
[7] = molecular target: C1q complement (rabbit serum as complement source) (rabbit); experiment: cell-based or functional assay; remark: listed apart in the source

CD32b (FcgRIIb receptor) (human), sequence (P31994 46-217): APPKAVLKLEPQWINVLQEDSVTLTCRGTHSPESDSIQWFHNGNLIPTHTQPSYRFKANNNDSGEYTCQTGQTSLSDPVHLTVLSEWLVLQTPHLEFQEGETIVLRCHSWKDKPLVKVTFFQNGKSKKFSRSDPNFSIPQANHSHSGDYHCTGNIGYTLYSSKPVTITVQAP
FcgRIIIa receptor (CD16a) on human NK cells (human), sequence (P08637 17-254): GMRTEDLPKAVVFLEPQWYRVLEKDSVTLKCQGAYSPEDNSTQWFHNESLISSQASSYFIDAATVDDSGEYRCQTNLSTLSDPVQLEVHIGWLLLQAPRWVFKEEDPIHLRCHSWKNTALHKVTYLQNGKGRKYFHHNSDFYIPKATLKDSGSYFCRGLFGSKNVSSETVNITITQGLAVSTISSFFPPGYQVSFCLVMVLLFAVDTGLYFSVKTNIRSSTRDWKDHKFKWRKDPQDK
CD64, sequence (P12314 16-288 limits assumed): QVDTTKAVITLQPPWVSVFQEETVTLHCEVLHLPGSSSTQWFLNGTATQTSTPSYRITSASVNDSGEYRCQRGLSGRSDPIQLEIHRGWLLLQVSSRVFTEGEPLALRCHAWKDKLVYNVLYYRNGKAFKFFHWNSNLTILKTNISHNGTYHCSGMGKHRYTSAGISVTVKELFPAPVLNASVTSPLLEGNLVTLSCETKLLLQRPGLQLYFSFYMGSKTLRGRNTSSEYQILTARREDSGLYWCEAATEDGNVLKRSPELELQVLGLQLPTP
CD32aH (FcgRIIa receptor, H at position 131) (human), sequence (P12318 34-217): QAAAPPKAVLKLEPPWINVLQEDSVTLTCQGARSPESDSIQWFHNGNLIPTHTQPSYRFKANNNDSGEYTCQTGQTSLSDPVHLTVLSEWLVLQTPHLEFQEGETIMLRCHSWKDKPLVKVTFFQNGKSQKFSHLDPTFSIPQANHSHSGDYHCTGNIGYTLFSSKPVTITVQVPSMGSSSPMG

Row | Substance | ELISA ratio (purified antibodies) [1] | ELISA ratio (purified antibodies) [2] | ELISA ratio (purified antibodies) [3] | ELISA ratio (purified antibodies) (CD64) | CDC [4] | ADCC [5] | ADCC, EC50: Antibody concentration (ng/ml) giving 50% maximum lysis of an internal control [5] [ng/mL] | ADCC, Ratio [WT]/[antibody] [5] | CDC, Antibody concentration (ng/ml) giving 50% lysis of an internal control [6] [ng/mL] | CDC, Ratio [WT]/[antibody] [6] | CDC, Antibody concentration (ng/ml) giving 50% lysis of an internal control [4] [ng/mL] | CDC, Ratio [WT]/[antibody] [4] | CDC, Antibody concentration (ng/ml) giving 50% lysis of an internal control [7] [ng/mL] | CDC, Ratio [WT]/[antibody] [7] | ADCC, EC45: Antibody concentration (ng/ml) giving 45% maximum lysis of an internal control [5] [ng/mL]
1 | anti-CD20 IgG variant A3A-14 (S298N, A378V) (antibody) | 0.9 | 0.8 | 1.1 | 1.6 | 0.7 | 12.8 | 0.82 | 12.8 | 341 | 0.7 | – | – | – | – | –
2 | anti-CD20 IgG variant G3A-43 (A231V, A378V) (antibody) | 2.7 | 3.6 | 5.3 | 1.4 | 2.8 | 12 | – | – | – | – | 168 | 1.55 | – | – | –
3 | anti-CD20 IgG variant G3A-45 (K246R, A378V) (antibody) | – | – | – | – | – | – | – | – | – | – | 195 | 1.34 | – | – | –
4 | anti-CD20 IgG variant G3A-88 (K320E, T394P, G402D) (antibody) | 3.9 | 3.7 | 2.94 | 2.4 | 0.9 | 1.3 | 8.07 | 1.3 | 274 | 0.86 | – | – | – | – | –
5 | anti-CD20 IgG variant G3A-95 (I336T, A378V) (antibody) | 1 | 0.9 | 0.7 | 1.3 | 1.3 | 10.8 | 0.97 | 10.8 | 177 | 1.34 | – | – | – | – | –
6 | anti-CD20 IgG variant G3A-103 (K248E, A378V) (antibody) | 1.2 | 0.9 | 0.5 | 1.2 | 7.1 | 33.9 | 0.31 | 33.9 | 33.3 | 7.1 | – | – | – | – | –
7 | anti-CD20 IgG variant G3A-139 (T307N, V323I) (antibody) | – | – | – | – | – | – | 2.8 | 3.75 | 85.7 | 2.76 | – | – | – | – | –
8 | anti-CD20 IgG variant J3A-06 (A378T, V397M, V412M) (antibody) | 2.4 | 2 | 0.84 | 1.3 | 3.7 | 8.3 | 1.27 | 8.28 | 64.1 | 6.7 | – | – | – | – | –
9 | anti-CD20 IgG variant J3A-16 (N286Y, P352S, A378V) (antibody) | 1.7 | 1.7 | 2.61 | 1.3 | 1.8 | 8.3 | 1.27 | 8.28 | 132 | 1.79 | – | – | – | – | –
10 | anti-CD20 IgG variant J3B-16 (S267G, A378T, V397M) (antibody) | – | – | – | – | – | – | – | – | – | – | 210 | 1.25 | – | – | –
11 | anti-CD20 IgG variant J3B-118 (P396L, N421T) (antibody) | 1 | 1.1 | 1 | 1.6 | 12.2 | 9.7 | – | – | – | – | 38.7 | 6.77 | – | – | –
12 | anti-CD20 IgG variant K3B-87 (V323I, F405L) (antibody) | – | – | – | – | – | – | 16.3 | 0.64 | 107 | 2.22 | – | – | – | – | –
13 | anti-CD20 IgG variant N3A-27 (K290E, A378V, K392R, S440G) (antibody) | – | – | – | – | – | – | – | 0.86 | – | – | – | – | 179 | 0.74 | 18.7
14 | anti-CD20 IgG variant O3A-86 (K248E, K290E, N361H, P396L) (antibody) | – | – | – | – | – | – | – | 0.36 | – | – | – | – | 44 | 3.02 | 4.4

The remaining lines, values ahead:

Row | ELISA ratio (purified antibodies) [1] | ELISA ratio (purified antibodies) [2] | ELISA ratio (purified antibodies) [3] | ELISA ratio (purified antibodies) (CD64) | CDC [4] | ADCC [5] | ADCC, EC50: Antibody concentration (ng/ml) giving 50% maximum lysis of an internal control [5] [ng/mL] | ADCC, Ratio [WT]/[antibody] [5] | CDC, Antibody concentration (ng/ml) giving 50% lysis of an internal control [6] [ng/mL] | CDC, Ratio [WT]/[antibody] [6] | CDC, Antibody concentration (ng/ml) giving 50% lysis of an internal control [4] [ng/mL] | CDC, Ratio [WT]/[antibody] [4] | CDC, Antibody concentration (ng/ml) giving 50% lysis of an internal control [7] [ng/mL] | CDC, Ratio [WT]/[antibody] [7] | ADCC, EC45: Antibody concentration (ng/ml) giving 45% maximum lysis of an internal control [5] [ng/mL] | Substance
15 | 2 | 2.6 | 1.4 | 1.5 | 6.1 | 8.3 | 1.27 | 8.28 | 38.5 | 6.14 | – | – | – | – | – | anti-CD20 IgG variant A3A-105D (G316D, K326E, A378V) (antibody)
16 | 3.3 | 3.2 | 1.33 | 1.4 | 2.2 | 5.3 | – | – | – | – | 210 | 1.25 | – | – | – | anti-CD20 IgG variant A3A-184 (K334N, P352S, V397M) (antibody)
17 | 3.1 | 4.3 | 1.3 | 1.5 | 3.2 | 30.9 | 0.34 | 30.9 | 74.1 | 3.2 | – | – | – | – | – | anti-CD20 IgG variant A3A-184A (K334N, P352S, V397M, A378V) (antibody)
18 | – | – | – | – | – | – | > 5000 | < 0.002 | 165 | 1.44 | – | – | – | – | – | anti-CD20 IgG variant DL4A-54 (P352L, Q418P) (antibody)
19 | – | – | – | – | 3.7 | – | 7.39 | – | 64.1 | – | – | – | – | – | – | anti-CD20 IgG variant J3A-14 (K326T) (antibody)
20 | 1.6 | 1.3 | 1.1 | 1.3 | 7.6 | 18.4 | 0.57 | 18.4 | 31 | 7.64 | – | – | – | – | – | anti-CD20 IgG variant J3A-28 (E333G, A378T, V397M) (antibody)
21 | – | – | – | – | 2.4 | 18.4 | 0.57 | – | – | – | – | – | – | – | – | anti-CD20 IgG variant J3B-23 (N286I, A378V, F423Y) (antibody)
22 | 3.7 | 1.8 | 2.7 | 1.4 | 11 | 10.8 | 0.97 | 10.8 | 21.6 | 11 | – | – | – | – | – | anti-CD20 IgG variant J3B-118A (P396L, N421T, A378V) (antibody)
23 | – | – | – | – | – | – | – | 0.55 | – | – | – | – | 66 | 2.02 | 2.9 | anti-CD20 IgG variant N3A-32 (K326T, K334N, P352S, N421T) (antibody)
24 | – | – | – | – | – | – | – | 0.36 | – | – | – | – | 36 | 3.69 | 4.4 | anti-CD20 IgG variant N3A-58 (V284L, K334R, A378V, K447N) (antibody)
25 | – | – | – | – | – | – | – | 0.62 | – | – | – | – | 129 | 1.03 | 2.6 | anti-CD20 IgG variant O3A-44 (A378V, K439R) (antibody)
26 | – | – | – | – | – | – | – | 0.44 | – | – | – | – | 115 | 1.16 | 3.6 | anti-CD20 IgG variant P4B-89 (T307P, T366A, A378V) (antibody)
27 | – | – | – | – | – | – | – | 0.94 | – | – | – | – | 126 | 1.06 | 1.7 | anti-CD20 IgG variant Q4B-68 (T307P, A378V, T394P) (antibody)
28 | – | – | – | – | – | – | 4.36 | 2.41 | 51.5 | 4.59 | – | – | – | – | – | anti-CD20 IgG variant QL2A-16 (K248E, N421T) (antibody)
